Values quoted from earlier work, collected in article PMC12786138.
Values joined by “and” are separate entries in the source; they are usually repeats but may differ in a detail not shown here. Equal values may be shown once.

Tests used:
SIRPα (Mus musculus) = SIRPα (Mus musculus) (UniProt P97797); experiment: SPR
SIRPα (Homo sapiens) [1] = molecular target: SIRPα (Homo sapiens) (UniProt P78324); experiment: SPR
SIRPα (Homo sapiens) [2] = molecular target: SIRPα (Homo sapiens) (UniProt P78324); experiment: colorimetric
CD47 (Homo sapiens) = CD47 (Homo sapiens) (UniProt Q08722); experiment: radiolabel competition
Chain of CD47 (Homo sapiens) (Q08722 19-323): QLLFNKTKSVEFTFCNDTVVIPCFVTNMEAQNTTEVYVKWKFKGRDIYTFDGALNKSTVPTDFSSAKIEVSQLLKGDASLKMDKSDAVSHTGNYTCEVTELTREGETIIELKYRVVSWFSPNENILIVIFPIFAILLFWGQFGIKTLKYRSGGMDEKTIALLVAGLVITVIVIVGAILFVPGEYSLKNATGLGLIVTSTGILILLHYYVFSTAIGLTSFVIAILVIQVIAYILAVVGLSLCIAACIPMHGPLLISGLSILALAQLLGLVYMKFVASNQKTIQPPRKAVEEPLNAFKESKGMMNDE

Chain of CD47 ECD (from UniProt Q08722) (Q08722 19-323): as above
Chain of SIRPα (Homo sapiens) (P78324 31-373): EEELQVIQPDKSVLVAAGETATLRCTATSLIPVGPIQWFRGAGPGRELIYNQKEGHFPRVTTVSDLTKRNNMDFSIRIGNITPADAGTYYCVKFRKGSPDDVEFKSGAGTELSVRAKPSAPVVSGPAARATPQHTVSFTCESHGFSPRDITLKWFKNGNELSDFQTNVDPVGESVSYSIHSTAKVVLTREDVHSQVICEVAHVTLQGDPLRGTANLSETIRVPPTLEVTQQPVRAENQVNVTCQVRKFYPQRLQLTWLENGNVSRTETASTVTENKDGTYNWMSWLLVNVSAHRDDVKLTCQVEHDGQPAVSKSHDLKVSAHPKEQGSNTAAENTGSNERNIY
Chain of CD47 ECD (from UniProt Q61735) (Q61735 19-303): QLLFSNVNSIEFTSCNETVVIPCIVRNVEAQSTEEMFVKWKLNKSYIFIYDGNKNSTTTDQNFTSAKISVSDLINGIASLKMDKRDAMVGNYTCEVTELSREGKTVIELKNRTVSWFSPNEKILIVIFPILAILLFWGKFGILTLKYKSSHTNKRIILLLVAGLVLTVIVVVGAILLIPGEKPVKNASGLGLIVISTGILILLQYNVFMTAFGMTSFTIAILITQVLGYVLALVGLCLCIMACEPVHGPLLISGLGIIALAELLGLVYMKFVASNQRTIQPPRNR
Chain of SIRPα (Mus musculus) (P97797 32-373): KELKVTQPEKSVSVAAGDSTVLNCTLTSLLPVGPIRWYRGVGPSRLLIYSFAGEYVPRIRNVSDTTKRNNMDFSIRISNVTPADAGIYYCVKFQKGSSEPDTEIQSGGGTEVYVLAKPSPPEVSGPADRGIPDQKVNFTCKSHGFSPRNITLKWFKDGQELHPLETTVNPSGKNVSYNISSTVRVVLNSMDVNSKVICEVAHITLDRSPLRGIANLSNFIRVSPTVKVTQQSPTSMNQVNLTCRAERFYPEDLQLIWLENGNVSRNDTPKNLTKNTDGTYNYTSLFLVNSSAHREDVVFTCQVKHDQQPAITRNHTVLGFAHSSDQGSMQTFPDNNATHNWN
Chain of CD47 ECD-alkaline phosphatase ECD (Q08722 19-323): as the sequence (Q08722 19-323) above
Chain of TSP1 (P07996 19-1170): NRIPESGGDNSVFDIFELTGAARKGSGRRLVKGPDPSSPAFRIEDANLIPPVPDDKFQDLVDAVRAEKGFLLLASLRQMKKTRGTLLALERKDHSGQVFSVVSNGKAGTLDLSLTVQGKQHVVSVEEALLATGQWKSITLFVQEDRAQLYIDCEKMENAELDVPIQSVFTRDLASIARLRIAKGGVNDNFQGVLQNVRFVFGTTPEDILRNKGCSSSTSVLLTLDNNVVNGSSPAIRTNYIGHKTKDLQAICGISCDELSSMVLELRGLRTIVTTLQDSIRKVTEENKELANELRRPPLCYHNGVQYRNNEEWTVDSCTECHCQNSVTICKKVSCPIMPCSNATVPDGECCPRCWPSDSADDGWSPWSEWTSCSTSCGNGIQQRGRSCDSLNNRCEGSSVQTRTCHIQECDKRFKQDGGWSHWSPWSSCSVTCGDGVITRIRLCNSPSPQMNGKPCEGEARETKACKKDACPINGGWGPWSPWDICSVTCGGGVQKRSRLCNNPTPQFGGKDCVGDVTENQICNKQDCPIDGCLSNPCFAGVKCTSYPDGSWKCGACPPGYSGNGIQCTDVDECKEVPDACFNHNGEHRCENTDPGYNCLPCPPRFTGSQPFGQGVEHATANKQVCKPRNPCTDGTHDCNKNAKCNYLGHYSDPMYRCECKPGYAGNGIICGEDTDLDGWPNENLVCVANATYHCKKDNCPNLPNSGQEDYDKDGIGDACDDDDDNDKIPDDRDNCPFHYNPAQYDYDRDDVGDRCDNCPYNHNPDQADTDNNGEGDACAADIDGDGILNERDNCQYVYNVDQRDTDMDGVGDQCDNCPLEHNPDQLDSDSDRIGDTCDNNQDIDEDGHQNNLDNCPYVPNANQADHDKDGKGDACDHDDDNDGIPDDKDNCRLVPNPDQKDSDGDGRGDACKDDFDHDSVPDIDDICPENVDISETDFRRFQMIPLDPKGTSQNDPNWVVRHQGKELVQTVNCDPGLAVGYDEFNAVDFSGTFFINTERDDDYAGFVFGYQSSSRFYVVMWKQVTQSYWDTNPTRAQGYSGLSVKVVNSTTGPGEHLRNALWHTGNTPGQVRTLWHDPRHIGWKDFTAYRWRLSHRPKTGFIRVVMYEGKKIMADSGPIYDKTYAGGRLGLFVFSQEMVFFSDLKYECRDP

Kd (SIRPα (Mus musculus)) [nM]	Kd (SIRPα (Homo sapiens) [1])	Kd (SIRPα (Homo sapiens) [2]) [nM]	Kd (CD47 (Homo sapiens)) [nM]	Substance
80	1200 nM and 1000 nM and 200 nM	–	–	CD47 ECD (from UniProt Q08722)
4700	> 30000 nM	–	–	CD47 ECD (from UniProt Q61735)
–	–	10	–	CD47 ECD-alkaline phosphatase ECD (from UniProt Q08722)
–	–	–	0.012	TSP1 (from UniProt P07996)
